B1: pol30-Rad30E9: PCNA mutant evolved for Rad30, IDCL sequence DNDWDFLKIDEL (protein)
chain: MLEAKFEEASLFKRIIDGFKDCVQLVNFQCKEDGIIAQAVDDSRVLLVSLEIGVEAFQEYRCDHPVTLGMDLTSLSKILRCGNNTDTLTLIADNTPDSIILLFEDTKKDRIAEYSLKLMDNDWDFLKIDELQYDSTLSLPSSEFSKIVRDLSQLSDSINIMITKETIKFVADGDIGSGSVIIKPFVDMEHPETSIKLEMDQPVDLTFGAKYLLDIIKGSSLSDRVGIRLSSEAPALFQFDLKSGFLQFFLAPKFNDEE
modifications: left off: Gal4 activation domain, end not stated, kept
B2: pol30-Pol32E5: PCNA mutant evolved for Pol32, IDCL sequence DADNDFLKISEL (protein)
chain: MLEAKFEEASLFKRIIDGFKDCVQLVNFQCKEDGIIAQAVDDSRVLLVSLEIGVEAFQEYRCDHPVTLGMDLTSLSKILRCGNNTDTLTLIADNTPDSIILLFEDTKKDRIAEYSLKLMDADNDFLKISELQYDSTLSLPSSEFSKIVRDLSQLSDSINIMITKETIKFVADGDIGSGSVIIKPFVDMEHPETSIKLEMDQPVDLTFGAKYLLDIIKGSSLSDRVGIRLSSEAPALFQFDLKSGFLQFFLAPKFNDEE
modifications: left off: Gal4 activation domain, end not stated, kept
B3: pol30-Rad27E6: PCNA mutant evolved for Rad27, IDCL sequence DGDYDILKIREL (protein)
chain: MLEAKFEEASLFKRIIDGFKDCVQLVNFQCKEDGIIAQAVDDSRVLLVSLEIGVEAFQEYRCDHPVTLGMDLTSLSKILRCGNNTDTLTLIADNTPDSIILLFEDTKKDRIAEYSLKLMDGDYDILKIRELQYDSTLSLPSSEFSKIVRDLSQLSDSINIMITKETIKFVADGDIGSGSVIIKPFVDMEHPETSIKLEMDQPVDLTFGAKYLLDIIKGSSLSDRVGIRLSSEAPALFQFDLKSGFLQFFLAPKFNDEE
modifications: left off: Gal4 activation domain, end not stated, kept

Experiments:
Assay in all cases: Yeast two hybrid (Y2H) analysis of PCNA-partner interaction
Format in all cases: binding
Msh6 = conditions: YRG2 strain, growth on selective agar plates lacking histidine; growth similar to WT PCNA denoted as 1
Description: (§1) For the Y2H assay, we used the YRG2 host strain, shown to be highly efficient in coupling the strength of protein-protein interactions with growth on media lacking histidine. Selected PCNA mutants were characterized for their ability to bind each of 12 main PCNA partners to obtain specificity profiles (Table 1, Table S1, and Figures S4–S5). […] However, in some cases a strong trade-off between the bindings of different partners was observed.
(§2) Y2H analysis was performed using the Yeast Two Hybrid Phagemid vector kit (Stratagene), following the manufacturer's instructions. The pAD-PCNA-WT/mutant plasmids were used as bait while plasmids encoding 12 different PCNA partners (Table 1 and Table S1) were used as prey. The YRG2 host strain (Stratagene) was cotransformed with pAD-PCNA WT/mutant and pBD-partner plasmids in all possible combinations using the LiAC method. Single transformants were grown in liquid SC-Leu-Trp to O.D600 10, washed twice with DDW, and diluted to an initial OD600 of 0.3. A series of 10-fold serial dilutions was then spotted onto selective SC-Leu-Trp-His plates and incubated at 30°C for 3 d. For quantitative Y2H, the generation time of the indicated mutants and their respective partners were calculated from their growth curves in liquid SC-Leu-Trp-His media. Cells were grown overnight in SC-Leu-Trp, washed twice with ddH2O, and diluted by a factor of 1∶50 into 10 ml of pre-warmed SC-Leu-Trp-His. O.D600 measurements of the cultures were taken at the indicated time; the generation time (τ) was calculated from the growth curves according to the equation ODt = OD0×2^t/τ. The generation time calculated for each culture is an average of at least 3 independent experiments.

Pol32 = conditions: for Binding of PCNA Mutants to Target Partners: Pol32 (Y2H): YRG2 strain, growth on selective agar plates lacking histidine, growth similar to WT PCNA denoted as 1
Description: as §1, §2

Rad27 = conditions: for Binding of PCNA Mutants to Target Partners: Rad27, fold increase or decrease (quantitative Y2H): footnote c: generation time in liquid selective media lacking histidine relative to cells expressing WT PCNA, average of at least 3 independent experiments
Description: as §1, §2

Rad30 = conditions: for Binding of PCNA Mutants to Target Partners: Rad30 (Y2H): YRG2 strain, growth on selective agar plates lacking histidine, growth similar to WT PCNA denoted as 1
Description: as §1, §2

Ung1 = conditions: YRG2 strain, growth on selective agar plates lacking histidine; growth similar to WT PCNA denoted as 1
Description: as §1, §2

Apn2 = test system: Apn2; design: key: ++: major increase in growth; +: moderate increase in growth; similar growth as the WT PCNA-expressing cells; -: minor decrease in growth; --: moderate decrease in growth; ---: major decrease in growth; conditions: spotting onto selective agar plates; PCNA fused to AD, partner to BD
Description: as §2
(§3) Table S1: Yeast two hybrid analysis of binding of selected PCNA mutants with seven additional partners not described in Table 1 of the main text. […]
(§4) pol30-Rad30E2 WT WT WT WT WT WT - pol30-Rad30E9 WT WT WT WT WT WT WT pol30-Rad27E6 WT WT WT WT + WT WT pol30-Rad27E31 WT WT WT WT + WT WT pol30-Rad27L1 WT -- WT WT -- WT WT pol30-Rad27L2 WT -- WT WT -- WT WT pol30-Pol32E5 WT WT WT WT WT WT WT pol30-Pol32E9 - WT WT WT WT WT WT pol30-Msh6E2 WT WT + WT WT WT WT pol30-Msh6E6 WT WT ++ WT WT WT WT pol30-Ung1E3 WT - WT WT WT WT WT pol30-79 --- --- --- - --- --- --- a PCNA mutants with enhanced affinities for the different target partners (see Table 1, text). b PCNA mutants were fused to the activating domain (AD), while the different partners were fused to the DNA-binding domain (BD). The growth of the resulting Y2H strains was compared to the growth of the WT PCNA-expressing strain following spotting onto selective agar plates (see Material and Methods). Growth rates on the agar plates were scored and tabulated as follows: ++ major increase in growth; + moderate increase in growth; WT-similar growth as the WT PCNA-expressing cells; - minor decrease in growth; -- moderate decrease in growth; --- major decrease in growth. ND-Not determined.

Cac1 = test system: Cac1; design: key: ++: major increase in growth; +: moderate increase in growth; similar growth as the WT PCNA-expressing cells; -: minor decrease in growth; --: moderate decrease in growth; ---: major decrease in growth; conditions: spotting onto selective agar plates; PCNA fused to AD, partner to BD
Description: as §2, §3, §4

Cdc9 = test system: Cdc9; design: key: ++: major increase in growth; +: moderate increase in growth; similar growth as the WT PCNA-expressing cells; -: minor decrease in growth; --: moderate decrease in growth; ---: major decrease in growth; conditions: spotting onto selective agar plates; PCNA fused to AD, partner to BD
Description: as §2, §3, §4

Eco1 = test system: Eco1; design: key: ++: major increase in growth; +: moderate increase in growth; similar growth as the WT PCNA-expressing cells; -: minor decrease in growth; --: moderate decrease in growth; ---: major decrease in growth; conditions: spotting onto selective agar plates; PCNA fused to AD, partner to BD
Description: as §2, §3, §4

Msh3 = test system: Msh3; design: key: ++: major increase in growth; +: moderate increase in growth; similar growth as the WT PCNA-expressing cells; -: minor decrease in growth; --: moderate decrease in growth; ---: major decrease in growth; conditions: spotting onto selective agar plates; PCNA fused to AD, partner to BD
Description: as §2, §3, §4

Rfc1 = test system: Rfc1; design: key: ++: major increase in growth; +: moderate increase in growth; similar growth as the WT PCNA-expressing cells; -: minor decrease in growth; --: moderate decrease in growth; ---: major decrease in growth; conditions: spotting onto selective agar plates; PCNA fused to AD, partner to BD
Description: as §2, §3, §4

Rrm3 = test system: Rrm3; design: key: ++: major increase in growth; +: moderate increase in growth; similar growth as the WT PCNA-expressing cells; -: minor decrease in growth; --: moderate decrease in growth; ---: major decrease in growth; conditions: spotting onto selective agar plates; PCNA fused to AD, partner to BD
Description: as §2, §3, §4

[1] = footnote c: generation time in liquid selective media lacking histidine relative to cells expressing WT PCNA, average of at least 3 independent experiments

Molecule | Binding of PCNA Mutants to Target Partners: Msh6 (Y2H) (Msh6) | Binding of PCNA Mutants to Target Partners: Pol32 (Y2H) (Pol32) | Binding of PCNA Mutants to Target Partners: Rad27, fold increase or decrease (quantitative Y2H) (Rad27) | Binding of PCNA Mutants to Target Partners: Rad30, fold increase or decrease (quantitative Y2H) (Rad30; [1]) [fold] | Binding of PCNA Mutants to Target Partners: Ung1 (Y2H) (Ung1) | Y2H growth relative to WT PCNA-expressing strain: Apn2 (Apn2) | Y2H growth relative to WT PCNA-expressing strain: Cac1 (Cac1) | Y2H growth relative to WT PCNA-expressing strain: Cdc9 (Cdc9) | Y2H growth relative to WT PCNA-expressing strain: Eco1 (Eco1) | Y2H growth relative to WT PCNA-expressing strain: Msh3 (Msh3) | Y2H growth relative to WT PCNA-expressing strain: Rfc1 (Rfc1) | Y2H growth relative to WT PCNA-expressing strain: Rrm3 (Rrm3) | Binding of PCNA Mutants to Target Partners: Pol32, fold increase or decrease (quantitative Y2H) (Pol32; [1]) | Binding of PCNA Mutants to Target Partners: Rad27 (Y2H) (Rad27; YRG2 strain, growth on selective agar plates lacking histidine, growth similar to WT PCNA denoted as 1) | Binding of PCNA Mutants to Target Partners: Rad30 (Y2H) (Rad30)
B1 | 1 | 1 | 0.5 ^c fold | 1.6 | 1 | WT | WT | WT | WT | WT | WT | WT | – | – | –
B2 | 1 | – | – | – | 1 | WT | WT | WT | WT | WT | WT | WT | 1.5 ^c fold | 1 | 1
B3 | 1 | 1 | 1.5 ^c fold | – | 1 | WT | + | WT | WT | WT | WT | WT | – | – | 1

Reference: publication PMC2953525, “Subtle Alterations in PCNA-Partner Interactions Severely Impair DNA Replication and Repair” (PLoS Biology, 2010)
